Substrate in the data set: O=C(O)[C@H]1NCC[C@@H]1O
Description: purified protein. The format is biochemical, Homo sapiens. Conditions: oxidizing conditions, without DTT; 1xPBS; substrate-inhibition fit; with 1 mM DTT a separate lower KM is reported; substrate named only hydroxyproline in methods.

Results on 1 protein are retold here after paper PMC9309405, “The integration of AlphaFold-predicted and crystal structures of human trans-3-hydroxy-L-proline dehydratase reveals a regulatory catalytic mechanism” (Computational and Structural Biotechnology Journal, 2022).

B1: human trans-3-Hydroxy-L-proline dehydratase (hL3HYPDH) (Homo sapiens) (protein)
chain: MESALAVPRLPPHDPGTPVLSVVDMHTGGEPLRIVLAGCPEVSGPTLLAKRRYMRQHLDHVRRRLMFEPRGHRDMYGAVLVPSELPDAHLGVLFLHNEGYSSMCGHAVLALGRFALDFGLVPAPPAGTREARVNIHCPCGLVTAFVACEDGRSHGPVRFHSVPAFVLATDLMVDVPGHGKVMVDIAYGGAFYAFVTAEKLGLDICSAKTRDLVDAASAVTEAVKAQFKINHPDSEDLAFLYGTILTDGKDAYTKEPTTNICVFADEQVDRSPTGSGVTARIALQYHKGLLELNQMRAFKSSATGSVFTGKAVREAKCGDFKAVIVEVSGQAHYTGTASFIIEDDDPLRDGFLLK
notes: recombinant, cloned in pET28b, E. coli BL21(DE3), His-Trap then Superdex 200; homodimer; crystal model residues 4-354; Cys104-Cys137 intramolecular disulphide
In the case of B1, the Km (usually the concentration of substrate that gives half-maximal velocity) is on record as 416.7 µM.
